Measurements reported in article PMC10825690 (2023).

Target: acetylated bovine serum albumin (AcBSA) (Bos taurus, UniProt P02769)
Assay: microscale thermophoresis

Sequence of acetylated bovine serum albumin (AcBSA) (P02769 25-607): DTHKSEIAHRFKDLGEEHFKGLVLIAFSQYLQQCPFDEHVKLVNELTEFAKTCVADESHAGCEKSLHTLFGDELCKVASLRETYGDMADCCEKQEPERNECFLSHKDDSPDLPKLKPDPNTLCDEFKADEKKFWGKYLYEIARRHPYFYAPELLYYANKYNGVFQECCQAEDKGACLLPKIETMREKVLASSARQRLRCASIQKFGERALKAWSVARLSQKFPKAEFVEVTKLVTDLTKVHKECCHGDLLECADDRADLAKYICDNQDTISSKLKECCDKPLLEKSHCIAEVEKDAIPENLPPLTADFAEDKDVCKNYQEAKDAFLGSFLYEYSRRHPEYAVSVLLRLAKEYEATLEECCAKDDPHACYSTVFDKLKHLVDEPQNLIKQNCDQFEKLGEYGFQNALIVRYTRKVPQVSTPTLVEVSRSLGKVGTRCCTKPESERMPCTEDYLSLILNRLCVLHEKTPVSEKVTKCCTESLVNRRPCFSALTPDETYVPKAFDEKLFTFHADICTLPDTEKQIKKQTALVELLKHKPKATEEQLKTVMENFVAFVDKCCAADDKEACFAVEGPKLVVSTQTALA

B1: FIBCD1 236-461 (protein)
chain: ATGSRPRDCLDVLLSGQQDDGVYSVFPTHYPAGFQVYCDMRTDGGGWTVFQRREDGSVNFFRGWDAYRDGFGRLTGEHWLGLKRIHALTTQAAYELHVDLEDFENGTAYARYGSFGVGLFSVDPEEDGYPLTVADYSGTAGDSLLKHSGMRFTTKDRDSDHSENNCAAFYRGAWWYRNCHTSNLNGQYLRGAHASYADGVEWSSWTGWQYSLKFSEMKIRPVREDR
modifications: acetylated BSA, RED-NHS labeled FIBCD1, calcium
**Q.** How did the Kd turn out when B1 was run?
**A.** Its Kd is 0.053 µM.
